This passage reports Kd results from the Immune Epitope Database (IEDB).

pKd: −log10 of the molar value.

The target of this experiment is HLA-A*02:01. Put plainly: IEDB peptide-MHC binding, purified MHC/direct/fluorescence; filed as Kd, often an IC50 or EC50 that approximates it; ≥ and ≤ were set here for values at or beyond the usual limits of such assays. The note with it: source organism: Influenza A virus (A/Puerto Rico/8/1934(H1N1)).

One may read the pKd as −log10 of the Kd, conventionally taken in molar units. The sequence FLAMITYMT had a pKd of 6.60.
In turn, FLARSALIL gave a pKd of 9.05.
Take FLKDVMESM: the pKd is 7.29.
The sequence FLLMDALKLSI gave a pKd of 7.62.
FMQALHLLL had a pKd of 7.89. This pKd lies 0.27 log units higher than the previous one.
Under GMFNMLSTV stands 7.64; under GMFNMLSTVL, 6.42; under IILKANFSV, 7.35.
Under LLQNSQVYS stands 5.86.
MMGMFNMLSTV gave a pKd of 7.29.
MMMGMFNMLST had a pKd of 7.44.
For RMGAVTTEV the value was 6.88; for SLVGIDPFRL, 7.15; for VLMEWLKTRPI, 7.00.
For WMMAMKYPI the value was 7.44; for WMMAMKYPITA, 7.12.
Under YLIRALTLNTM stands 7.34.
